The results in this text go back to patent publication US4701455A, “Biopterin analogs” (Burroughs Wellcome Co., priority 1983, dated 1987).

Substrate in series [1]: C[C@H](O)[C@H](O)[C@H]1CNc2nc(N)[nH]c(=O)c2N1
Description: purified protein, by the assay type. To be noted: other: rat liver enzyme; Km of substrate with the pterin as cofactor.

Substrate in series [2]: C[C@H](O)[C@H](O)[C@H]1CNc2nc(N)[nH]c(=O)c2N1
Description: cells, lysate or membranes named. To be noted: other: Km of substrate with the pterin as cofactor.

B1: Phenylalanine hydroxylase (Rattus norvegicus) (protein)
chain: MAAVVLENGVLSRKLSDFGQETSYIEDNSNQNGAISLIFSLKEEVGALAKVLRLFEENDINLTHIESRPSRLNKDEYEFFTYLDKRTKPVLGSIIKSLRNDIGATVHELSRDKEKNTVPWFPRTIQELDRFANQILSYGAELDADHPGFKDPVYRARRKQFADIAYNYRHGQPIPRVEYTEEEKQTWGTVFRTLKALYKTHACYEHNHIFPLLEKYCGFREDNIPQLEDVSQFLQTCTGFRLRPVAGLLSSRDFLGGLAFRVFHCTQYIRHGSKPMYTPEPDICHELLGHVPLFSDRSFAQFSQEIGLASLGAPDEYIEKLATIYWFTVEFGLCKEGDSIKAYGAGLLSSFGELQYCLSDKPKLLPLELEKTACQEYSVTEFQPLYYVAESFSDAKEKVRTFAATIPRPFSVRYDPYTQRVEVLDNTQQLKILADSINSEVGILCNALQKIKS
As a reminder, the Km is the substrate concentration at which the rate is half of its maximum. For B1, in series [1], the Km amounted to 123 µM.

B2: Tryptophan hydroxylase (Rattus norvegicus) (protein)
chain: MQPAMMMFSSKYWARRGLSLDSAVPEEHQILGGLTQNKATASKSEDKRSGKDTSESSKTAVVFSLKNEVGGLVRALRLFQEKHVNMLHIESRRSRRRSSEVEIFVDCECGKTEFNELIQLLKFQTTIVTLNPPDNIWTEEEELEDVPWFPRKISELDRCSHRVLMYGTELDADHPGFKDNVYRQRRKYFVDVAMGYKYGQPIPRVEYTEEETKTWGVVFRELSKLYPTHACREYLKNFPLLTKYCGYREDNVPQLEDVSMFLKERSGFTVRPVAGYLSPRDFLAGLAYRVFHCTQYVRHGSDPLYTPEPDTCHELLGHVPLLADPKFAQFSQEIGLASLGASDEDVQKLATCYFFTIEFGLCKQEGQLRAYGAGLLSSIGELKHALSDKACVKAFDPKTTCLQECLITTFQDAYFVSESFEEAKEKMRDFAKSITRPFSVYFNPYTQSIEILKDTRSIENVVQDLRSDLNTVCDALNKMNQYLGI
For B2, in series [2], the Km was found to be 15 µM.
